The text below walks through data of PMC5419741.

Data set [1] deals with LARP1 DM15 Y922 mutant (Homo sapiens), Q6PKG0-3. Put plainly: EMSA. Particulars: 5' m7Gppp cap; Competition assays: 20 mM Tris pH 8, 150 mM NaCl, 10% glycerol, 1 mM DTT, 0.5 ug BSA, 0.5 ug tRNA, 30 min on ice, native gel; EMSA as in Lahr et al. 2015 with ….
Data set [2] relates to LARP1 DM15 E886 mutant (Homo sapiens), Q6PKG0-3. The data set is described as follows: EMSA. Particulars: 5' m7Gppp cap; Competition assays: 20 mM Tris pH 8, 150 mM NaCl, 10% glycerol, 1 mM DTT, 0.5 ug BSA, 0.5 ug tRNA, 30 min on ice, native gel; EMSA as in Lahr et al. 2015 with …. On the technique in general: A gel shift assay detects complexes by their altered migration in electrophoresis.

One may read the Kd as the concentration at which binding is half-saturated. Turning to “CCUCUUUUCCGUGGCGCCUCGGAGGCGUUCAGCUGCUUCAAG [m7Gppp-RPS6 42mer (capped TOP)]”, the Kd in data set [1] came to 2.6 µM; in data set [2], 8 µM.
